Laboratory results: patent US20200317768A1 (published 2020)

T1: human FcγRIIb constitutively expressed on MDCK cells (human, UniProt P31994 43-310)
T1 sequence (looked up): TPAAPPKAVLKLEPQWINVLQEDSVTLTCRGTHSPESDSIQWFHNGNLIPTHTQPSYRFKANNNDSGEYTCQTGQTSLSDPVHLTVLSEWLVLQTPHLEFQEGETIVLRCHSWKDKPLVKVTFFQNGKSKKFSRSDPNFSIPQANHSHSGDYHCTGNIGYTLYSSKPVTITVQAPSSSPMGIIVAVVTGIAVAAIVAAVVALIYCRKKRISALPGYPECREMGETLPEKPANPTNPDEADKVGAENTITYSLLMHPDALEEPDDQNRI

T2: soluble mouse FcγRII, His-tagged (mouse, UniProt P08101 30-210, limits assumed)
T2 construct: Captured on the chip by an anti-His antibody
T2 sequence (looked up): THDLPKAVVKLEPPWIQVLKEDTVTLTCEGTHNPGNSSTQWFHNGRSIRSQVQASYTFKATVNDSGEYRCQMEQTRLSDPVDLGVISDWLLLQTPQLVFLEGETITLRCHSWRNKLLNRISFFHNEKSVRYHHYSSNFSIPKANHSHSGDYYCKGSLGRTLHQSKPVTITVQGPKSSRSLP


Assays:
[1] = molecular target: T1, human FcγRIIb constitutively expressed …; assay: cell-based or functional assay
[2] = molecular target: T2, soluble mouse FcγRII, His-tagged; assay: SPR, mouse FcgRII-His captured, antigen-antibody complex injected, pH7.4, 25C
Description: Regarding the produced Fc region variant-containing antibodies, binding assays between soluble mouse FcγRII and antigen-antibody complexes were performed using BIACORE® T200 (GE Healthcare). Soluble mouse FcγRII was produced in the form of a His-tagged molecule by a method known to those skilled in the art. An appropriate amount of an anti-His antibody was fixed onto Sensor chip CM5 (GE Healthcare) by the amine coupling method using a His capture kit (GE Healthcare) to capture mouse FcγRII. Next, an antibody-antigen complex and a running buffer (as a reference solution) were injected, and interaction was allowed to take place with the mouse FcγRII captured onto the sensor chip. 20 mM N-(2-Acetamido)-2-aminoethanesulfonic acid, 150 mM NaCl, 1.2 mM CaCl₂, and 0.05% (w/v) TWEEN, 20 at pH7.4 was used as the running buffer, and the respective buffer was also used to dilute the soluble mouse FcγRII. To regenerate the sensor chip, 10 mM glycine-HCl at pH1.5 was used. All measurements were carried out at 25° C. […] To calculate the parameters, the BIACORE® T100 Evaluation Software (GE Healthcare) was used.

celluar uptake [1] | biacore IC binding [2] | Binder
2.05 relative to SG1 (=1.00) | 1.16 relative to SG1 (=1.00) | M103205H795-P1536m/M103202L889-SK1 (antibody, human IgG1, kappa) heavy: not shown light: DIVMTQSPATLSLSPGERATLSCTSSQSVYHANWLSWFQQKPGQPPKLLIYWASTLAYGVPSRFSGSGSGTDFTLTISSLQPEDAATYYCAGGYGGGRYAFGQGTKVEIKRTVAAPSVFIFPPSDEQLKSGTASVVCLLNNFYPREAKVQWKVDNALQSGNSQESVTEQDSKDSTYSLSSTLTLSKADYEKHKVYACEVTHQGLSSPVTKSFNRGEC
7.64 relative to SG1 (=1.00) | 1.73 relative to SG1 (=1.00) | M103205H795-P1540m/M103202L889-SK1 (antibody, human IgG1, kappa) heavy: not shown light: DIVMTQSPATLSLSPGERATLSCTSSQSVYHANWLSWFQQKPGQPPKLLIYWASTLAYGVPSRFSGSGSGTDFTLTISSLQPEDAATYYCAGGYGGGRYAFGQGTKVEIKRTVAAPSVFIFPPSDEQLKSGTASVVCLLNNFYPREAKVQWKVDNALQSGNSQESVTEQDSKDSTYSLSSTLTLSKADYEKHKVYACEVTHQGLSSPVTKSFNRGEC
5.1 relative to SG1 (=1.00) | 1.41 relative to SG1 (=1.00) | M103205H795-P1546m/M103202L889-SK1 (antibody, human IgG1, kappa) heavy: QVTLKESGPVLVKPTETLTLTCTVSGIDLSHDDISWVRQAPGKGLEWVGIISYAGSTYYASWAKGRLTISKDTSKNQVVLTMTNMDPVDTATYYCARGVPAYSHGGDLWGQGTLVTVSSASTKGPSVFPLAPSSKSTSGGTAALGCLVKDYFPEPVTVSWNSGALTSGVHTFPAVLQSSGLYSLSSVVTVPSSSLGTQTYICNVNHKPSNTKVDKKVEPKSCDKTHTCPPCPAPELLGGPSVFLFPPKPKDTLMISRTPEVTCVVVDVSHEDPEVKFNWYVDGVEVHNAKTKPREEQYNSTYRVVSVLTVLHRDWLNGKEYKCKVSNKALPAPIEKTISKAKGQPREPQVYTLPPSREEMTKNQVSLTCLVKGFYPSDIAVEWESNGQPENNYKTTPPVLDSDRSFFLYSKLTVKKSRWQQGNVFSCSVMHEALHNHYTQKSLSLSP light: DIVMTQSPATLSLSPGERATLSCTSSQSVYHANWLSWFQQKPGQPPKLLIYWASTLAYGVPSRFSGSGSGTDFTLTISSLQPEDAATYYCAGGYGGGRYAFGQGTKVEIKRTVAAPSVFIFPPSDEQLKSGTASVVCLLNNFYPREAKVQWKVDNALQSGNSQESVTEQDSKDSTYSLSSTLTLSKADYEKHKVYACEVTHQGLSSPVTKSFNRGEC
7.73 relative to SG1 (=1.00) | 1.8 relative to SG1 (=1.00) | M103205H795-P1545m/M103202L889-SK1 (antibody, human IgG1, kappa) heavy: QVTLKESGPVLVKPTETLTLTCTVSGIDLSHDDISWVRQAPGKGLEWVGIISYAGSTYYASWAKGRLTISKDTSKNQVVLTMTNMDPVDTATYYCARGVPAYSHGGDLWGQGTLVTVSSASTKGPSVFPLAPSSKSTSGGTAALGCLVKDYFPEPVTVSWNSGALTSGVHTFPAVLQSSGLYSLSSVVTVPSSSLGTQTYICNVNHKPSNTKVDKKVEPKSCDKTHTCPPCPAPELLGGPSVFLFPPKPKDTLMISRTPEVTCVVVDVSHEDPEVKFNWYVDGVEVHNAKTKPREEQYNSTYRVVSVLTVLHRDWLNGKEYKCKVSNKALPAPIEKTISKAKGQPREPQVYTLPPSREEMTKNQVSLTCLVKGFYPSDIAVEWESNGQPENNYKTTPPVLDSKGSFFLYSKLTVKKSRWQQGNVFSCSVMHEALHNHYTQKSLSLSP light: DIVMTQSPATLSLSPGERATLSCTSSQSVYHANWLSWFQQKPGQPPKLLIYWASTLAYGVPSRFSGSGSGTDFTLTISSLQPEDAATYYCAGGYGGGRYAFGQGTKVEIKRTVAAPSVFIFPPSDEQLKSGTASVVCLLNNFYPREAKVQWKVDNALQSGNSQESVTEQDSKDSTYSLSSTLTLSKADYEKHKVYACEVTHQGLSSPVTKSFNRGEC
4.85 relative to SG1 (=1.00) | 1.33 relative to SG1 (=1.00) | M103205H795-P1547m/M103202L889-SK1 (antibody, human IgG1, kappa) heavy: QVTLKESGPVLVKPTETLTLTCTVSGIDLSHDDISWVRQAPGKGLEWVGIISYAGSTYYASWAKGRLTISKDTSKNQVVLTMTNMDPVDTATYYCARGVPAYSHGGDLWGQGTLVTVSSASTKGPSVFPLAPSSKSTSGGTAALGCLVKDYFPEPVTVSWNSGALTSGVHTFPAVLQSSGLYSLSSVVTVPSSSLGTQTYICNVNHKPSNTKVDKKVEPKSCDKTHTCPPCPAPELLGGPSVFLFPPKPKDTLMISRTPEVTCVVVDVSHEDPEVKFNWYVDGVEVHNAKTKPREEQYNSTYRVVSVLTVLHRDWLNGKEYKCKVSNKALPAPIEKTISKAKGQPREPQVYTLPPSREEMTKNQVSLTCLVKGFYPSDIAVEWESNGQPENNYKTTPPVLDSDKSFFLYSKLTVKKSRWQQGNVFSCSVMHEALHNHYTQKSLSLSP light: DIVMTQSPATLSLSPGERATLSCTSSQSVYHANWLSWFQQKPGQPPKLLIYWASTLAYGVPSRFSGSGSGTDFTLTISSLQPEDAATYYCAGGYGGGRYAFGQGTKVEIKRTVAAPSVFIFPPSDEQLKSGTASVVCLLNNFYPREAKVQWKVDNALQSGNSQESVTEQDSKDSTYSLSSTLTLSKADYEKHKVYACEVTHQGLSSPVTKSFNRGEC
3.32 relative to SG1 (=1.00) | 1.21 relative to SG1 (=1.00) | M103205H795-P1542m/M103202L889-SK1 (antibody, human IgG1, kappa) heavy: not shown light: DIVMTQSPATLSLSPGERATLSCTSSQSVYHANWLSWFQQKPGQPPKLLIYWASTLAYGVPSRFSGSGSGTDFTLTISSLQPEDAATYYCAGGYGGGRYAFGQGTKVEIKRTVAAPSVFIFPPSDEQLKSGTASVVCLLNNFYPREAKVQWKVDNALQSGNSQESVTEQDSKDSTYSLSSTLTLSKADYEKHKVYACEVTHQGLSSPVTKSFNRGEC
7.66 relative to SG1 (=1.00) | 2.04 relative to SG1 (=1.00) | M103205H795-P1544m/M103202L889-SK1 (antibody, human IgG1, kappa) heavy: QVTLKESGPVLVKPTETLTLTCTVSGIDLSHDDISWVRQAPGKGLEWVGIISYAGSTYYASWAKGRLTISKDTSKNQVVLTMTNMDPVDTATYYCARGVPAYSHGGDLWGQGTLVTVSSASTKGPSVFPLAPSSKSTSGGTAALGCLVKDYFPEPVTVSWNSGALTSGVHTFPAVLQSSGLYSLSSVVTVPSSSLGTQTYICNVNHKPSNTKVDKKVEPKSCDKTHTCPPCPAPELLGGPSVFLFPPKPKDTLMISRTPEVTCVVVDVSHEDPEVKFNWYVDGVEVHNAKTKPREEQYNSTYRVVSVLTVLHRDWLNGKEYKCKVSNKALPAPIEKTISKAKGQPREPQVYTLPPSREEMTKNQVSLTCLVKGFYPSDIAVEWESNGQPENNYKTTPPVLDSRGSFFLYSKLTVKKSRWQQGNVFSCSVMHEALHNHYTQKSLSLSP light: DIVMTQSPATLSLSPGERATLSCTSSQSVYHANWLSWFQQKPGQPPKLLIYWASTLAYGVPSRFSGSGSGTDFTLTISSLQPEDAATYYCAGGYGGGRYAFGQGTKVEIKRTVAAPSVFIFPPSDEQLKSGTASVVCLLNNFYPREAKVQWKVDNALQSGNSQESVTEQDSKDSTYSLSSTLTLSKADYEKHKVYACEVTHQGLSSPVTKSFNRGEC
3.2 relative to SG1 (=1.00) | 0.9 relative to SG1 (=1.00) | M103205H795-P1539m/M103202L889-SK1 (antibody, human IgG1, kappa) heavy: not shown light: DIVMTQSPATLSLSPGERATLSCTSSQSVYHANWLSWFQQKPGQPPKLLIYWASTLAYGVPSRFSGSGSGTDFTLTISSLQPEDAATYYCAGGYGGGRYAFGQGTKVEIKRTVAAPSVFIFPPSDEQLKSGTASVVCLLNNFYPREAKVQWKVDNALQSGNSQESVTEQDSKDSTYSLSSTLTLSKADYEKHKVYACEVTHQGLSSPVTKSFNRGEC
3.7 relative to SG1 (=1.00) | 1.19 relative to SG1 (=1.00) | M103205H795-P1543m/M103202L889-SK1 (antibody, human IgG1, kappa) heavy: not shown light: DIVMTQSPATLSLSPGERATLSCTSSQSVYHANWLSWFQQKPGQPPKLLIYWASTLAYGVPSRFSGSGSGTDFTLTISSLQPEDAATYYCAGGYGGGRYAFGQGTKVEIKRTVAAPSVFIFPPSDEQLKSGTASVVCLLNNFYPREAKVQWKVDNALQSGNSQESVTEQDSKDSTYSLSSTLTLSKADYEKHKVYACEVTHQGLSSPVTKSFNRGEC
7.17 relative to SG1 (=1.00) | 1.57 relative to SG1 (=1.00) | M103205H795-P1541m/M103202L889-SK1 (antibody, human IgG1, kappa) heavy: not shown light: DIVMTQSPATLSLSPGERATLSCTSSQSVYHANWLSWFQQKPGQPPKLLIYWASTLAYGVPSRFSGSGSGTDFTLTISSLQPEDAATYYCAGGYGGGRYAFGQGTKVEIKRTVAAPSVFIFPPSDEQLKSGTASVVCLLNNFYPREAKVQWKVDNALQSGNSQESVTEQDSKDSTYSLSSTLTLSKADYEKHKVYACEVTHQGLSSPVTKSFNRGEC
1.84 relative to SG1 (=1.00) | 1.11 relative to SG1 (=1.00) | M103205H795-P1538m/M103202L889-SK1 (antibody, human IgG1, kappa) heavy: not shown light: DIVMTQSPATLSLSPGERATLSCTSSQSVYHANWLSWFQQKPGQPPKLLIYWASTLAYGVPSRFSGSGSGTDFTLTISSLQPEDAATYYCAGGYGGGRYAFGQGTKVEIKRTVAAPSVFIFPPSDEQLKSGTASVVCLLNNFYPREAKVQWKVDNALQSGNSQESVTEQDSKDSTYSLSSTLTLSKADYEKHKVYACEVTHQGLSSPVTKSFNRGEC
2.77 relative to SG1 (=1.00) | 1.32 relative to SG1 (=1.00) | M103205H795-P1537m/M103202L889-SK1 (antibody, human IgG1, kappa) heavy: not shown light: DIVMTQSPATLSLSPGERATLSCTSSQSVYHANWLSWFQQKPGQPPKLLIYWASTLAYGVPSRFSGSGSGTDFTLTISSLQPEDAATYYCAGGYGGGRYAFGQGTKVEIKRTVAAPSVFIFPPSDEQLKSGTASVVCLLNNFYPREAKVQWKVDNALQSGNSQESVTEQDSKDSTYSLSSTLTLSKADYEKHKVYACEVTHQGLSSPVTKSFNRGEC
